# Experimental data taken from patent US20050065082A1 (published 2005).
# Tests used:
# [1] = target: T1, GST-BPL1 (N-terminal GST fusion protein of human BPL1, holocarboxylase synthetase) (human, UniProt P50747 1-726); assay: not described, Example 4 holds only kinase assays
# T1 construct: Expressed in E. coli BL21; not shown: glutathione S-transferase (GST) tag encoded by the pGEX-4T vector (Amersham Pharmacia Biotech), N-terminal
# T1 sequence: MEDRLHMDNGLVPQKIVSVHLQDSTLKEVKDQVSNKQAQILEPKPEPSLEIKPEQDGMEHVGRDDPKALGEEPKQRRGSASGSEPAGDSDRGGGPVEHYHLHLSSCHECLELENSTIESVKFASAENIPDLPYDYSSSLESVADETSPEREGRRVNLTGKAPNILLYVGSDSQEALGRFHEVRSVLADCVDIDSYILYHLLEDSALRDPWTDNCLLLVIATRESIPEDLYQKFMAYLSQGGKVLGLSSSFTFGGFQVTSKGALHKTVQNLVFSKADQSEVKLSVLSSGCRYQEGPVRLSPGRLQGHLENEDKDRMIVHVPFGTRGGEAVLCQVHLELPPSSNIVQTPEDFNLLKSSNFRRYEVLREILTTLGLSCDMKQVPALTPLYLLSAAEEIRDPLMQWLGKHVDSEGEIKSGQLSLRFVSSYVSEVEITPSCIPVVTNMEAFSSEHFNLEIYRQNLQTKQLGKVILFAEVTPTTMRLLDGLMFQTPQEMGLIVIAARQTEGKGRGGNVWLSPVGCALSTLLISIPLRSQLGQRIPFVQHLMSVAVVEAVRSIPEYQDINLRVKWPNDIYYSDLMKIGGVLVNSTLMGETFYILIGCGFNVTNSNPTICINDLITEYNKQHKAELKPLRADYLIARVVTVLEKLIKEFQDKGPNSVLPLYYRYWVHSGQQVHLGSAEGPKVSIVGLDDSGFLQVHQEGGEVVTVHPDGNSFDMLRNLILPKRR
# [2] = target: T2, GST-BMAL1 (N-terminal GST fusion protein of human BMAL1; BMAL1b was used) (human, UniProt O00327 1-626); assay: not described, Example 3 holds only kinase assays
# T2 construct: Expressed in E. coli BL21; not shown: glutathione S-transferase (GST) tag encoded by the pGEX-4T vector (Amersham Pharmacia Biotech), N-terminal
# T2 sequence (O00327 whole entry, the tested form may be a part): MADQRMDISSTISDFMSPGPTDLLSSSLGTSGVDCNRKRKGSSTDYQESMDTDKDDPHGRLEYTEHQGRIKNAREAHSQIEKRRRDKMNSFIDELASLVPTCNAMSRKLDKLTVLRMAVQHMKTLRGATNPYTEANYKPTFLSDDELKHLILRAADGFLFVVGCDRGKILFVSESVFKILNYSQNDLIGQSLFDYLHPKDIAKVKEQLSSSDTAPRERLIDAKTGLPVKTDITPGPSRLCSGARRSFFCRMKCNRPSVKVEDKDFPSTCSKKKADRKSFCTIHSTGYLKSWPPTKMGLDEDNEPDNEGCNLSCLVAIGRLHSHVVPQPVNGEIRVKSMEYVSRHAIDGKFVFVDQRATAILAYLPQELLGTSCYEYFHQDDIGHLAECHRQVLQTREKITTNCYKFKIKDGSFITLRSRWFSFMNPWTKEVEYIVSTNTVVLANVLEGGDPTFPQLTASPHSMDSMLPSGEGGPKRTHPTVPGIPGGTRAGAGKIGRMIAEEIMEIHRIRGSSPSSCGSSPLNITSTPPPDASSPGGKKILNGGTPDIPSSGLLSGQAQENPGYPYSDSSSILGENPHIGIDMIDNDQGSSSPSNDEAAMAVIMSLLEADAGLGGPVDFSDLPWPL
binder,measurement,setting,value
"His-JNK3 (activated human JNK3 (JNK3α1) with an N-terminal histidine-tag) (enzyme, UniProt P53779-2 1-422, looked up, Expressed in Sf9 cells by recombinant baculovirus, purified with Probond Resin; not shown: N-terminal His-tag and vector residues of pFastBac HT) MSLHFLYYCSEPTLDVKIAFCQGFDKQVDVSYIAKHYNMSKSKVDNQFYSVEVGDSTFTVLKRYQNLKPIGSGAQGIVCAAYDAVLDRNVAIKKLSRPFQNQTHAKRAYRELVLMKCVNHKNIISLLNVFTPQKTLEEFQDVYLVMELMDANLCQVIQMELDHERMSYLLYQMLCGIKHLHSAGIIHRDLKPSNIVVKSDCTLKILDFGLARTAGTSFMMTPYVVTRYYRAPEVILGMGYKENVDIWSVGCIMGEMVRHKILFPGRDYIDQWNKVIEQLGTPCPEFMKKLQPTVRNYVENRPKYAGLTFPKLFPDSLFPADSEHNKLKASQARDLLSKMLVIDPAKRISVDDALQHPYINVWYDPAEVEAPPPQIYDKQLDEREHTIEEWKELIYKEVMNSEEKTKNGVVKGQPSPSAQVQQ",binding result,[1],binds
same,binding result,[2],binds
